From publication PMC8298264, “Function of cofactor Akirin2 in the regulation of gene expression in model human neutrophil-like HL60 cells” (Bioscience Reports, 2021)

Tested on: human HL60 cells
Experiment: SWATH-MS proteomics, differential protein representation, akirin2 KO vs WT HL60 cells
Format: cell-based
Details: SWATH-MS, akirin2 KO vs WT HL60 cells; over-represented in KO
Summary of the method: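 WT and akirin2 KO HL60 lysates (150 µg, n=3 biological replicates) were FASP trypsin-digested and desalted. A spectral library was built by IDA from 3 µg digests, then 5 µg per sample went to variable-window SWATH DIA over a 120-min 5–30% acetonitrile gradient. Identifications were accepted at 1% global FDR, with total-area-sum normalization.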

Molecule | Fold Change | Log (Fold Change)
Alpha-2-HS-glycoprotein (protein, UniProt P02765 19-300; P02765 341-367, looked up) Alpha-2-HS-glycoprotein chain … 1: APHGPGLIYRQPNCDDPETEEAALVAIDYINQNLPWGYKHTLNQIDEVKVWPQQPSGELFEIEIDTLETTCHVLDPTPVARCSVRQLKEHAVEGDCDFQLLKLDGKFSVVYAKCDSSPDSAEDVRKVCQDCPLLAPLNDTRVVHAAKAALAAFNAQNNGSNFQLEEISRAQLVPLPPSTYVEFTVSGTDCVAKEATEAAKCNLLAEKQYGFCKATLSEKLGGAEVAVTCMVFQTQPVSSQPQPEGANEAVPTPVVDPDAPPSPPLGAPGLPPAGSPPDSHVL Alpha-2-HS-glycoprotein chain … 2: TVVQPSVGAAAGPVVPPCPGRIRHFKV | 2.248 | 0.3517
UDP-N-acetylglucosamine--peptide N-acetylglucosaminyltransferase 110 kDa subunit (protein, UniProt O15294 2-1046, looked up) UDP-N-acetylglucosamine--pepti …: ASSVGNVADSTEPTKRMLSFQGLAELAHREYQAGDFEAAERHCMQLWRQEPDNTGVLLLLSSIHFQCRRLDRSAHFSTLAIKQNPLLAEAYSNLGNVYKERGQLQEAIEHYRHALRLKPDFIDGYINLAAALVAAGDMEGAVQAYVSALQYNPDLYCVRSDLGNLLKALGRLEEAKACYLKAIETQPNFAVAWSNLGCVFNAQGEIWLAIHHFEKAVTLDPNFLDAYINLGNVLKEARIFDRAVAAYLRALSLSPNHAVVHGNLACVYYEQGLIDLAIDTYRRAIELQPHFPDAYCNLANALKEKGSVAEAEDCYNTALRLCPTHADSLNNLANIKREQGNIEEAVRLYRKALEVFPEFAAAHSNLASVLQQQGKLQEALMHYKEAIRISPTFADAYSNMGNTLKEMQDVQGALQCYTRAIQINPAFADAHSNLASIHKDSGNIPEAIASYRTALKLKPDFPDAYCNLAHCLQIVCDWTDYDERMKKLVSIVADQLEKNRLPSVHPHHSMLYPLSHGFRKAIAERHGNLCLDKINVLHKPPYEHPKDLKLSDGRLRVGYVSSDFGNHPTSHLMQSIPGMHNPDKFEVFCYALSPDDGTNFRVKVMAEANHFIDLSQIPCNGKAADRIHQDGIHILVNMNGYTKGARNELFALRPAPIQAMWLGYPGTSGALFMDYIITDQETSPAEVAEQYSEKLAYMPHTFFIGDHANMFPHLKKKAVIDFKSNGHIYDNRIVLNGIDLKAFLDSLPDVKIVKMKCPDGGDNADSSNTALNMPVIPMNTIAEAVIEMINRGQIQITINGFSISNGLATTQINNKAATGEEVPRTIIVTTRSQYGLPEDAIVYCNFNQLYKIDPSTLQMWANILKRVPNSVLWLLRFPAVGEPNIQQYAQNMGLPQNRIIFSPVAPKEEHVRRGQLADVCLDTPLCNGHTTGMDVLWAGTPMVTMPGETLASRVAASQLTCLGCLELIAKNRQEYEDIAVKLGTDLEYLKKVRGKVWKQRISSPLFNTKQYTMELERLYLQMWEHYAAGNKPDHMIKPVEVTESA | 2.047 | 0.3112
Perilipin-3 (protein, UniProt O60664 2-434, looked up) Perilipin-3: SADGAEADGSTQVTVEEPVQQPSVVDRVASMPLISSTCDMVSAAYASTKESYPHIKTVCDAAEKGVRTLTAAAVSGAQPILSKLEPQIASASEYAHRGLDKLEENLPILQQPTEKVLADTKELVSSKVSGAQEMVSSAKDTVATQLSEAVDATRGAVQSGVDKTKSVVTGGVQSVMGSRLGQMVLSGVDTVLGKSEEWADNHLPLTDAELARIATSLDGFDVASVQQQRQEQSYFVRLGSLSERLRQHAYEHSLGKLRATKQRAQEALLQLSQVLSLMETVKQGVDQKLVEGQEKLHQMWLSWNQKQLQGPEKEPPKPEQVESRALTMFRDIAQQLQATCTSLGSSIQGLPTNVKDQVQQARRQVEDLQATFSSIHSFQDLSSSILAQSRERVASAREALDHMVEYVAQNTPVTWLVGPFAPGITEKAPEEKK | 1.9528 | 0.2907
OCIA domain-containing protein 1 (protein, UniProt Q9NX40 1-245, looked up) OCIA domain-containing …: MNGRADFREPNAEVPRPIPHIGPDYIPTEEERRVFAECNDESFWFRSVPLAATSMLITQGLISKGILSSHPKYGSIPKLILACIMGYFAGKLSYVKTCQEKFKKLENSPLGEALRSGQARRSSPPGHYYQKSKYDSSVSGQSSFVTSPAADNIEMLPHYEPIPFSSSMNESAPTGITDHIVQGPDPNLEESPKRKNITYEELRNKNRESYEVSLTQKTDPSVRPMHERVPKKEVKVNKYGDTWDE | 1.964 | 0.2932
PML-RARA-regulated adapter molecule 1 (protein, UniProt Q96QH2 1-670, looked up) PML-RARA-regulated adapter …: MAHHLPAAMESHQDFRSIKAKFQASQPEPSDLPKKPPKPEFGKLKKFSQPELSEHPKKAPLPEFGAVSLKPPPPEVTDLPKKPPPPEVTDLPKKPPPPEVTDLPKKPPPPEVTDLPKKPSKLELSDLSKKFPQLGATPFPRKPLQPEVGEAPLKASLPEPGAPARKPLQPDELSHPARPPSEPKSGAFPRKLWQPEAGEATPRSPQPELSTFPKKPAQPEFNVYPKKPPQPQVGGLPKKSVPQPEFSEAAQTPLWKPQSSEPKRDSSAFPKKASQPPLSDFPKKPPQPELGDLTRTSSEPEVSVLPKRPRPAEFKALSKKPPQPELGGLPRTSSEPEFNSLPRKLLQPERRGPPRKFSQPEPSAVLKRHPQPEFFGDLPRKPPLPSSASESSLPAAVAGFSSRHPLSPGFGAAGTPRWRSGGLVHSGGARPGLRPSHPPRRRPLPPASSLGHPPAKPPLPPGPVDMQSFRRPSAASIDLRRTRSAAGLHFQDRQPEDIPQVPDEIYELYDDVEPRDDSSPSPKGRDEAPSVQQAARRPPQDPALRKEKDPQPQQLPPMDPKLLKQLRKAEKAEREFRKKFKFEGEIVVHTKMMIDPNAKTRRGGGKHLGIRRGEILEVIEFTSNEEMLCRDPKGKYGYVPRTALLPLETEVYDDVDFCDPLENQPLPLGR | 2.265 | 0.355
Intraflagellar transport protein 25 homolog (protein, UniProt Q9Y547 1-144, looked up) Intraflagellar transport …: MRKIDLCLSSEGSEVILATSSDEKHPPENIIDGNPETFWTTTGMFPQEFIICFHKHVRIERLVIQSYFVQTLKIEKSTSKEPVDFEQWIEKDLVHTEGQLQNEEIVAHDGSATYLRFIIVSAFDHFASVHSVSAEGTVVSNLSS | 2.042 | 0.31
Serpin B8 (protein, UniProt P50452 1-374, looked up) Serpin B8: MDDLCEANGTFAISLFKILGEEDNSRNVFFSPMSISSALAMVFMGAKGSTAAQMSQALCLYKDGDIHRGFQSLLSEVNRTGTQYLLRTANRLFGEKTCDFLPDFKEYCQKFYQAELEELSFAEDTEECRKHINDWVAEKTEGKISEVLDAGTVDPLTKLVLVNAIYFKGKWNEQFDRKYTRGMLFKTNEEKKTVQMMFKEAKFKMGYADEVHTQVLELPYVEEELSMVILLPDDNTDLAVVEKALTYEKFKAWTNSEKLTKSKVQVFLPRLKLEESYDLEPFLRRLGMIDAFDEAKADFSGMSTEKNVPLSKVAHKCFVEVNEEGTEAAAATAVVRNSRCSRMEPRFCADHPFLFFIRHHKTNCILFCGRFSSP | 2.0658 | 0.3151
Galectin-9 (protein, UniProt O00182 1-355, looked up) Galectin-9: MAFSGSQAPYLSPAVPFSGTIQGGLQDGLQITVNGTVLSSSGTRFAVNFQTGFSGNDIAFHFNPRFEDGGYVVCNTRQNGSWGPEERKTHMPFQKGMPFDLCFLVQSSDFKVMVNGILFVQYFHRVPFHRVDTISVNGSVQLSYISFQNPRTVPVQPAFSTVPFSQPVCFPPRPRGRRQKPPGVWPANPAPITQTVIHTVQSAPGQMFSTPAIPPMMYPHPAYPMPFITTILGGLYPSKSILLSGTVLPSAQRFHINLCSGNHIAFHLNPRFDENAVVRNTQIDNSWGSEERSLPRKMPFVRGQSFSVWILCEAHCLKVAVDGQHLFEYYHRLRNLPTINRLEVGGDIQLTHVQT | 1.857 | 0.2687
Lysozyme C (protein, UniProt P61626 19-148, looked up) Lysozyme C: KVFERCELARTLKRLGMDGYRGISLANWMCLAKWESGYNTRATNYNAGDRSTDYGIFQINSRYWCNDGKTPGAVNACHLSCSALLQDNIADAVACAKRVVRDPQGIRAWVAWRNRCQNRDVRQYVQGCGV | 2.204 | 0.3432
